Results as given in the domain aggregation screens of Martell et al. (2025).

assay: soluble fraction after stress (log2 fold change); higher = more stays soluble; pooled small domains, quantitative proteomics; conditions: stress: pH 4
Procedure, shortened: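 Custom libraries of small protein domains were pooled and exposed to pH 4. High-throughput quantitative proteomics then measured the log2 fold change in the amount of each domain still soluble, with higher values meaning more stayed soluble. This soluble-fraction fold change stands for aggregation propensity.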

Row | Sequence | soluble fraction (log2)
1 | HMSSKYLKIYNDIVGKIDSGIFEANTKLPSESQLMDEYNVSRYTVRKSLNLLEQNGYIEKSKGKGSFVLDM | -0.1
2 | HMSSLQFVTLTLMEGHAWVGREIQELLMPPQMRIALIRRGDSQVIPKGSTILESADELILSAIEYQG | -2.51
3 | HMSSLREQVADALRAHLVSGRMRPGVLYSAPKLAAEFGVSATPVREAMLDLVSEGLVDVVRNKGFRVT | 0.018
4 | HMSSPPNPQLAKRYISYSVDDIARLFGIHRHTVREWIKRGLPVIDQQRPLLVQGADLAEFLRKRRA | 0.162
5 | HMSSPVIQINTRNDGWIIKLLQPAVEKDVLEGYLADVGLKLQSQMMEKILAAPAGTEFHIKRGSNILTE | -0.133
6 | HMSSQADEEALFKLLAANPYSDEQLEEIRIAIGSGIAYKDIIRIADIGNTAERMKQLRLEFTKDTAN | -0.353
7 | HMSSQGSLEKGYSALLDGRLDDAALAYGAALAANPMERDALLGLAYVAHSKGRREEAQALYRKVLR | -0.53
8 | HMSSSTFVGRVAVITIGEARQNSPAEARFKDRHGTTHYVMVEPMEDVVFKQGDKVLLVESAGATFKVIEPA | -0.00194
9 | HMSSTSISFNDFQKYWLSNDIKSFQLREDKMTVQGSLKNGTAYETVVPSERLFQFIGQHPKD | -0.127
10 | HMSSVDLLSERERQVLARISRGMSNEEIAAELAITPRTVRNHLANIYGKIDVHSRAEAVVWARERGIT | -0.152
11 | HMSSVEQAILETLSKEHSHLTSLQVFEEIRGRLPAVNQSTVYRALERLVEQGVVSVSDMGTHAAVYE | 0.119
12 | HMSSVMMPDLTGESAIVAMERLQQLGLLPKVEEVDSYREPGIVLEQLPRAGEKIKRGRIAILKVSS | -0.131
13 | HMSSVTGMERFLSSGAVKGIGKTMAARIVEHFGTETMTVLESFPERLAEVPGIGAKKAEAIGQSYSEISD | -0.259
14 | HMSSVVARRARIATLVVETSVASQEELGRLLADEGITVTQATLSRDLDALGAVKVLSADGGTRYRIPGQ | -0.45
15 | HMSSVVVARTWTDTTGDFKVEAELLGVEGGLVRLKKEDGTVLSVPIAKLSTADRTFLQENQP | 0.22
16 | HMSSWEDNFSYWIRNVAETLDKDLLNVANSKLEKIIINAALDQTNGKKNEAAILLGLGRNTLAKKIKELG | -0.929
17 | HMSSWEEQLKIWAKNELASGNTDILARATVSFEQILIEAALTHTGGRKKTAAELLGWGRNTLTRKIKELHI | -0.743
18 | HMSSWEVLAEPIQTVMRRYGVPGAYEKLKEVTRGKSLTAEALHALIRSLDIPQADKERLLALTPAAWA | -0.393
19 | HMSSYAEVMERSKYLQLHKYKIWKSETDGFWRTYYLNEQGKRKMKKLKHSEDMIDFVIEYVQNNE | -1.06
20 | HMSTDDILSSITALRLASVQFQLGQFDPALDSLKLVKEQAWSGAKNILAGDIQLAKGDKEAAKASYQQAQQ | -0.542
21 | HMSTDIPFNIFSQKWNADEIDSIVVENNKIEGKTKDNKKFSTYAPDELLTSLMENHKNPNVIVEFRAP | -0.646
22 | HMSTDKIDIVSSAILSSLKDNDGFIGLTDKSPPPEIYTAFRVSKKVFKQAIGALYKQRRITLESSGIRLIS | -0.107
23 | HMSTDSTQLLGFNKTGEELPIYKEANEENKFAEIPQNVYVKNFGQNGEFTKIKYLDQEGYVKTAGLK | 0.199
24 | HMSTEEYDRGYEQGLEEAAKADDAWVANLIKIYSQNTPESMPETMKGRLDAFLYEQQRRAQSVPEM | -1.09
25 | HMSTIAAMADPRAWALEMLGFPPGTVKPSKREIQVRFRESLRDVHPDHGGDSRTASASINDLSEARRVLLS | 0.0192
26 | HMSTLGIRIKHYRTDSNLTQKELAGLINVKRDALANWETDRALPDVMNLKKLAEVFQVSTDELLQV | -0.225

Row | Sequence | soluble fraction (log2)
27 | HMSTLTGTQRAAVVLMQMSPPNAARVMAQFTDAEAEEIAAEIVRLRKVDPEVAEQIMKDFHEAALSS | -0.645
28 | HMSTLTLTSGTYAVGENIKAGKYTIMGSGSIAISSSGKARVNSNLTADRKDYVLNDDETIKIKGKAQFIPI | 0.0425
29 | HMSTMKIVRVKSNLKIGQEITSKDIEVVEVGAYNMPSEVMKNSEDVIGKYASAEMIKGEYVLAAKISDTP | -0.902
30 | HMSTMNRLPRHEQILKLVRANGFMPIEELARLLDVTPQTIRRDINTLSEENLLRRFHGGAALGPSVE | 0.255
31 | HMSTMTGTVDTPGASLNVRTGAWGPIVGQLAHGSKVTIIGSSGDWFKISYNGATRYVHKNYVNTT | -0.0624
32 | HMSTMVEIPNVVGMTIKEAKEALGNLGLSISKISGSNEDSAIVTEVSPAPGSSVKRDESITLVGQPK | 0.12
33 | HMSTPAKVTPTNPIVKQLFNAAETQIKNKDIQNAIASYEKADTLTTDEKVKQYIHYQLSTLKDDN | 0.0384
34 | HMSTPERQEVLDILKRQGEMTPLQIAGQISRTSKSVSNILSKLKREGFVANGAKYGSWVSTES | 0.0778
35 | HMSTPTVDTKTKLDLYNLLYKKDLNYLDAYNFVLDNFGSDNIDIMFKMLGLDFTNWVIENKPE | 0.0493
36 | HMSTQYKTGHYKTTDALNLRASYSTSSNVLLTIPKGKTIVVTRVHNNEWGQVEYNGKTGWIYLEYTAYTES | -0.387
37 | HMSTSAAELLRTARQQAGMSQSAVAELAKTSQSAIAMYEAGNREPSLPVLQRLLAATGHQLSLSVLP | 0.00437
38 | HMSTTILSFQNRVVIETLHNEGRSLRYIANYLGFSKATIFNELHRLNSEYRAELAQADFERKVSQR | -0.53
39 | HMSTVAETVYNEIRDDILYGELQPGVKLKLEALRERYSVGVNTLREVLNRLVASGFVFVEGQKGFRVV | -0.377
40 | HMSTVEKDSELGGNFRIASYPTGKGQISEAIRSMIVRAKQVGVNIRLNTEATEEPLRALAPNAVILATG | 0.18
41 | HMSTVELPVQINGKVRGRITVPANAGQEDVKQAALADSKVQRYIEGASIRKVIVVPRKLVNIVV | ≥ 0.43
42 | HMSTVTGLINYLSSGLIKGVGEATARKLVDHFGLDVLDIIQFNPQRLLEVDGIGEARAEMIASSFSEQK | -1.48
43 | HMSVDIIPGKADQKVRLIHDPAIVGVTTGGVKTAGPHTLIQIELGPNERPYKRLSLLELIPEG | 0.00535
44 | HMSVDVGMQLRKLREERKISMRELARLSGLSANALSMIERGLTSPSVSTLNKLAGALEVPITAFFRI | -0.00213
45 | HMSVEVPNLIGKTLDQVDIDLKSLDLSFVILDSARYNSSFKPLSVIDHQPISGAKVKVNRKIYLTINPS | -0.358
46 | HMSVKIELNENEQAIFTAVQKVNEAVLPELRAQFSDMSNKAWDNSVKMLTKNNLLKVSKEGEILYIRM | 0.0421
47 | HMSVKSVSLRKISYKVRRGDSLYNIAKNFSLSINDITHWNSINKKSYLQPGQRLTLYINPRN | 0.193
48 | HMSVKVFRDQILLNNDSDKMLQLSFSNLFGQKVLETSISPGKSAISTGNLPPGIYFITTSPATGVMRVII | -0.544
49 | HMSVLRLGNRGPDVRKLQLLLNSTLVPSPQLTVDGDFGKRTEQAVVTFQQMRGLPQDGIVGQRTWALLGQT | 0.241
50 | HMSVLSVASKNQAINPGQVVALLKDGIKLNDDGRVEILDNNNNIRYNEKGNLLSIEERVKEFLDANPHFRQ | -0.134
51 | HMSVLVLPMLKELTHEDREVVELFYLNDMSVREIALIISVPIGTVKSRLHRARAQLKHQIVNLNQ | -1.18
52 | HMSVPVNAPMPGTILDIKVKAGAAVKAGDVVMILEAMKMENEISAPQDGTIASIDVRKGDTVNSGDVLYTM | -0.00195

Row | Sequence | soluble fraction (log2)
53 | HMSVSVNAPMPGNILDVRAKTGESIQKGQVIVILEAMKMENEIMAPQDGKISSINTSKGSTVNSGDLLFTM | -0.693
54 | HMSVTMPNLVGLDEQTAVTRINSSNLSYGSTNYVHSDHEAGVVFKQSTPAYTEVDEHTKIYIWVSLGPEE | -0.145
55 | HMSVTPLLDATEKDKTKYRDLWLVAVVKNGVNYARKYKFGYVYAWLYRHDRDWLLQVNNQHKIPNIT | -0.107
56 | HMSVTVMVLRAAGDIQAGTEITDKHLATVEVGEYGLPEGIINDKDSILGKIALTDIAKGDYFFSQKLG | -1.31
57 | HMSVVKPIYIGMMTSEVEAIMGKPFEVITNNNSKNNQLWIYKYQDKRSVMLTFTNYKLIKIE | -0.0356
58 | HMSWDNELLERAHKIIELYPQKRSALGPLLYLAQEKDGFISDDSIVEISNLVDITEVQVKSVSSFYSMY | -0.0573
59 | HMSWGDVKLTMWGAEEDQTMLREMADAFIEQNADKGNVTIEIGVQSESSAKDTVLADPESAADVFA | -0.106
60 | HMSWRWVPVSGAYTTSALEAAGLTRAFDDQAAAEEWLGLFFDDLLREGVGEVSLYEEDRLVYGPMSL | -2.33
61 | HMSYANVEWRDFLNSLDEKYRIVVILYYVQGFKTREIAEILQINQSTVRGRLAKAREKLEQQYN | -1.13
62 | HMSYFIFDGVLNLGKQYELKGEESSHITKSRRLRPGDSFLIQDQEGQRFEAILKSFDRNSLIFTPHKPTA | 0.043
63 | HMSYFNEYEVGDTIRVVNGPLADQISTITAIDKEKGLVNISTVFFGRENNVQVSINDIEKYN | -0.903
64 | HMSYGDLTGRTVVITGASKGIGARASRVLAQAGASVVGLARSVDELTALKYDLENDGLSFDFG | ≥ 0.43
65 | HMSYKYYSTERPLMPGSFPKPQGNTVLNIENFNDRSYVGKIGREAWGFIEYEKPISPVLLDDYELVAA | ≥ 0.43
66 | HMSYLELENLAEDIKATYDNLSTDLREVFRLSDIEGLSYEEISNKMNIPIGTVRSRLHRARETLLRIFNN | -1.22
67 | HMSYPTAVTQTTLNVRTGPGTQYERLGAFVENTEVIVLTRQPEWIQVRGMSGDKAIIGWVSARYLQMNP | 0.18
68 | HMSYQNKLNYLINAFGGADNFQKLLGVGPSAISNYKSRKHLPLNQAKRLSKIAPQFGFSLDPHSLQIST | 0.0613
69 | HMSYQSYDKVVGDTFFEANLKAESKFGKGNFEIISTRRVKHPIYLGFGHKELVELTIGIHDP | -0.302
70 | HMSYTAYLSQELGDMSREIQSELLKKGYNGSSSFTIVRTYMGSSVKFSVYNANNGELITSKTINM | -0.306
71 | HMSYTDIILKMSNVNFLTKVNFTNSEKNKNIKNGNFLIKKGKNRITAAFDYKDNELVISKSNLRNTFL | -1.22
72 | HMTAEVIYVDVGGEVNQPSVVELTDGSRVTDAIAAAGGLTEKADLTDINRAAFVSDGEKIFIPSQEE | -0.385
73 | HMTAFAGLTPRERDLLELIAQGRDNAQIAATLGVSDKTVRNHITHIFAKLEVETRAQAIVLARNAGFGRA | -0.0568
74 | HMTAGYFTRGSHQDEVLRIQGTPSGVNKYSDHEVWNYGLSSVDISLRDRRVTEWNNISGNLKV | -0.35
75 | HMTAKRELILRVFMDSNGKLLSIDDVFMEMRKKRSHRTSKMTVKRAIDLLVDLGLLKEVLFDDDNIKYEYV | -0.105
76 | HMTALISGNKAMQMLELSRHSFEKIVKDGLLSIVHEGDKKYYEIGEVEAFMGSDTYKELVNGV | -0.314
